In patent publication US20260167679A1, “FUSION PROTEIN TARGETING MITOCHONDRIA, METHOD OF MAKING AND USE THEREOF” (UNIVERSITY OF ROCHESTER, priority 2020, published 2026):

Assays:
[1] = tested on: C. elegans; test: Hypoxia and reoxygenation with hypoxic preconditioning; type: in vivo, Caenorhabditis elegans; conditions: mtON activation during the short hypoxia (PC)
Description: Experiments were carried out using a hypoxic chamber (Coy Laboratory Products, 5%/95% H2/N2 gas, palladium catalyst) at 26° C. with 50-100 animals per plate. O2 was <0.01%. Hypoxic preconditioning (PC) duration was 4 h, and control animals were incubated at 26° C. in room air for the same time. 1 Hz illumination (Quantum LED, 0.02 mW/mm^2) was carried out during PC period or during the hypoxic period. Hypoxic exposure was for 18.5, 21 h after PC. Twenty-four hours after hypoxia exposure, animals that were moving or those that moved in response to a light touch to the head were scored as alive. Data from days where PC was at least 15% effective for both +ATR and −ATR were used. Animals supplemented with ATR were allowed to lay eggs onto plates with no ATR that were subsequently used for HR experiments to minimize confounding effects of ATR. ATR from the parent animal was sufficient to provide active mtON in progeny as tested by the azide toxin assay described above. […] FCCP dissolved in ethanol was deposited onto seeded NGM plates.

[2] = tested on: AMPK; test: Immunoblot of phosphorylated AMPK; type: in vivo, Caenorhabditis elegans; conditions: animals removed from food, mtON activation
Description: Synchronized young adult animals were exposed to 1 Hz light (Quantum LED, 0.02 mW/mm2) for 4 h, and immediately harvested with ice-cold M9 media and centrifuged at 1,000×g for 1 min. Animals were ground by plastic pestle disruption in lysis buffer (20 mM Tris-HCl, 100 mM NaCl, 1 mM EDTA, 1 mM DTT, 10% glycerol, 0.1% SDS, pH 7.6, 1×Halt™ protease inhibitor cocktail, Thermo78429) and diluted 1:1 in sample loading buffer (100 mM Tris-HCl, 10% v/v glycerol, 10% SDS, 0.2% w/v bromophenol blue, 2% v/v b-mercaptoethanol). These samples were heated at 95° C. for 5 min. Isolated mitochondrial samples were prepared as described above and diluted 1:1 in sample loading buffer with 1% SDS. […] samples were loaded to 7.5% polyacrylamide gels and separated by SDS-PAGE. Proteins were transferred to nitrocellulose membranes and blocked in 5% non-fat milk/TBST (50 mM Tris, 150 mM NaCl, 0.05% Tween 20, pH 8.0) for 1 h at room temperature. Membranes were incubated at 4° C. in primary antibodies diluted 1:1,000 in 5% bovine serum albumin:anti-GFP (ClonTech Living Colours #ab632375), anti-ATP5a (Abcam, #ab14748), 1:60 anti-HSP60 (Department of Biology, Iowa City, IA 52242; Developmental Studies Hybridoma Bank, University of Iowa Department of Biology, Iowa City, IA 52242), […], anti-Actin (Abcam #ab14128), and 1:10,000 antiphospho-AMPKa Rabbit (Cell Signaling, #2535). […]

B1: mtON: fusion of the 187 N-terminal amino acids of mouse IMMT1 to the light-activated proton pump (Mac) from Leptosphaeria maculans (protein)
chain: MLRACQLSGVTVAAQSCLCGKFVLRPLRPCRRYSTSSSSGLTAGKIAGAGLLFVGGGIGGTILYAKWDSHFRESVEKTIPYSDKLFGMVLGSAPYTVPLPKKPVQSGPLKISSVSEVMKDSKLPVAQSQKTKGDTPASAASTGAAQIISAAGDTLSVPAPAVQHEDTIKTECPNTNEGKSTSETTEEPAGLIVDQFEEVLMKTSQLFPLPTATQSAQPTHVAPVPTVLPDTPIYETVGDSGSKTLWVVFVLMLIASAAFTALSWKIPVNRRLYHVITTIITLTAALSYFAMATGHGVALNKIVIRTQHDHVPDTYETVYRQVYYARYIDWAITTPLLLLDLGLLAGMSGAHIFMAIVADLIMVLTGLFAAFGSEGTPQKWGWYTIACIAYIFVVWHLVLNGGANARVKGEKLRSFFVAIGAYTLILWTAYPIVWGLADGARKIGVDGEIIAYAVLDVLAKGVFGAWLLVTHANLRESDVELNGFWANGLNREGAIRIGEDDGAR
modifications: Synthetic Complete mtON fusion protein sequence
protection conferred by hypoxic preconditioning [1]: suppressed
AMPK phosphorylation [2]: prevented this phosphorylation
